PMC5071332

Experiments:
Experiment in all cases: immunostaining of cells or tissue; cell-surface binding assay: HEK293T cells expressing WT or mutant HA-tagged Slitrks incubated with 10 μg/ml control IgC or Ig-PTPδ; immunofluorescence imaging of Ig-fusion proteins and HA; percentage of cells exhibiting binding
[1] = target: HA-tagged Slitrk2[S601P] (human) (UniProt Q9H156)
[2] = target: HA-tagged full-length Slitrk1 wild type (human) (UniProt Q96PX8)
[3] = target: HA-tagged full-length Slitrk4 wild type (human) (UniProt Q8IW52)
[4] = target: HA-tagged Slitrk1[R584K] (human) (UniProt Q96PX8)
[5] = target: HA-tagged Slitrk4[V206I] (human) (UniProt Q8IW52)
[6] = target: HA-tagged Slitrk1[N400I] (human) (UniProt Q96PX8)
[7] = target: HA-tagged Slitrk1[S593G] (human) (UniProt Q96PX8)
[8] = target: HA-tagged Slitrk4[I578V] (human) (UniProt Q8IW52)
[9] = target: HA-tagged Slitrk2[L626F] (human) (UniProt Q9H156)
[10] = target: HA-tagged Slitrk1[T418S] (human) (UniProt Q96PX8)
[11] = target: HA-tagged full-length Slitrk2 wild type (human) (UniProt Q9H156)
[12] = target: HA-tagged Slitrk2[V89M] (human) (UniProt Q9H156)
[13] = target: HA-tagged Slitrk2[R32L] (human) (UniProt Q9H156)
[14] = target: HA-tagged Slitrk2[S549F] (human) (UniProt Q9H156)

percentage of cells exhibiting the binding of Ig-PTPδ [1]: 80% | percentage of cells exhibiting the binding of Ig-PTPδ [2]: 66.7% | percentage of cells exhibiting the binding of Ig-PTPδ [3]: 81% | percentage of cells exhibiting the binding of Ig-PTPδ [4]: 62% | percentage of cells exhibiting the binding of Ig-PTPδ [5]: 24% | percentage of cells exhibiting the binding of Ig-PTPδ [6]: 32% | percentage of cells exhibiting the binding of Ig-PTPδ [7]: 68.7% | percentage of cells exhibiting the binding of Ig-PTPδ [8]: 22.2% | percentage of cells exhibiting the binding of Ig-PTPδ [9]: 76% | percentage of cells exhibiting the binding of Ig-PTPδ [10]: 41% | percentage of cells exhibiting the binding of Ig-PTPδ [11]: 71% | percentage of cells exhibiting the binding of Ig-PTPδ [12]: 81% | percentage of cells exhibiting the binding of Ig-PTPδ [13]: 82% | percentage of cells exhibiting the binding of Ig-PTPδ [14]: 68.8%
Substance: recombinant Ig-fusion protein of PTPδ (IgC-PTPδ) (from UniProt P23468 21-1912) (Fc fusion)
